Assay results reported in US20240116985A1 (published 2024).
Starred links: 1 amine or outer side, 2 acyl side, 3 side chain; linkers in the order of their positions; H or OH if unused. Positions of bridges follow the written chain, without caps; N, C: chain ends. Non-standard residues stand in square brackets, D forms with d. Primed or numbered codes have the meaning given here. PyrS2(3) = (S)-3-amino-1-((pent-4-en-1-yloxy)carbonyl)pyrrolidine-3-carboxylic acid, stapling residue, C=CCCCOC(=O)N1CC[C@@](N[*:1])(C(=O)[*:2])C1; PyrS2″ = (S)-3-amino-1-((pent-4-en-1-yloxy)carbonyl)pyrrolidine-3-carboxylic acid (stapling residue), C=CCCCOC(=O)N1CC[C@@](N[*:1])(C(=O)[*:2])C1; B5(16) = 2-amino-2-(pent-4-en-1-yl)hept-6-enoic acid = 2,2-bis(4-pentenyl)glycine (stitching residue), C=CCCCC(CCCC=C)(N[*:1])C(=O)[*:2]; B5(20) = 2-amino-2-(pent-4-en-1-yl)hept-6-enoic acid = bis(4-pentenyl)glycine, stitching residue, C=CCCCC(CCCC=C)(N[*:1])C(=O)[*:2]; B5(6) = 2-amino-2-(pent-4-en-1-yl)hept-6-enoic acid (bis(4-pentenyl)glycine), stitching residue, C=CCCCC(CCCC=C)(N[*:1])C(=O)[*:2]; TfeGA = (S)-2-amino-3-((carboxymethyl)(2,2,2-trifluoroethyl)amino)propanoic acid, O=C([C@H](CN(CC(=O)[*:3])CC(F)(F)F)N[*:1])[*:2]; B5(3) = 2,2-bis(4-pentenyl)glycine (stitching residue), C=CCCCC(CCCC=C)(N[*:1])C(=O)[*:2]; B5″ = 2,2-bis(4-pentenyl)glycine, stitching residue, C=CCCCC(CCCC=C)(N[*:1])C(=O)[*:2]; Phe(2-Cl) = N[C@@H](Cc1ccccc1Cl)C(=O)O; Phe(2-OMe) = COc1ccccc1C[C@H](N)C(=O)O; Bta = N[C@@H](Cc1csc2ccccc12)C(=O)O; αAllylPro = C=CC[C@@]1(C(=O)O)CCCN1; tBuAla = CC(C)(C)C[C@H](N)C(=O)O; 3Thi = N[C@@H](Cc1ccsc1)C(=O)O; S8 = C=CCCCCCC[C@](C)(N)C(=O)O; hSer = N[C@@H](CCO)C(=O)O

B1: I-762 (peptide)
peptide: Ac-[αAllylPro]D[tBuAla][B5″]D[TfeGA]AAFN[PyrS2(3)][3Thi][Bta]Q-NH2
modifications: staple 1-4, 4-11
B2: I-993 (peptide)
peptide: Ac-[αAllylPro]D[tBuAla][B5(3)]D[TfeGA]AAF[hSer][PyrS2″][Phe(2-Cl)][Bta][hSer]-NH2
modifications: staple 1-4, 4-11
B3: I-506 (peptide)
peptide: Ac-[αAllylPro]DL[B5(6)]DEAAFQ[S8]F[Bta]H-NH2
modifications: staple 1-4, 4-11
notes: Stapled peptide composition
B4: I-519 (peptide)
peptide: Ac-[αAllylPro]DA[B5(20)]DEAAFN[S8][3Thi][Bta]Q-NH2
modifications: staple 1-4, 4-11; also: later-eluting HPLC peak of staple isomers
B5: I-521 (peptide)
peptide: Ac-[αAllylPro]DI[B5(20)]DEAAFN[S8][3Thi][Bta]Q-NH2
modifications: staple 1-4, 4-11; also: later-eluting HPLC peak of staple isomers
B6: I-517 (peptide)
peptide: Ac-[αAllylPro]DI[B5(20)]DEAAFN[S8][3Thi][Bta]H-NH2
modifications: staple 1-4, 4-11
B7: I-512 (peptide)
peptide: Ac-[αAllylPro]DI[B5(20)]DEAAFN[S8][Phe(2-OMe)][Bta]H-NH2
modifications: staple 1-4, 4-11
notes: Stapled peptide composition
B8: I-516 (peptide)
peptide: Ac-[αAllylPro]DA[B5(20)]DEAAFN[S8][3Thi][Bta]H-NH2
modifications: staple 1-4, 4-11; also: later-eluting HPLC peak of staple isomers
B9: I-352 (peptide)
peptide: Ac-[αAllylPro]DA[B5(16)]DAAAFV[S8]FWQ-NH2
modifications: staple 1-4, 4-11
notes: Stapled peptide composition; also called Ac-PL3-Asp-Ala-B5-Asp-Ala-Ala-Ala-Phe-Val-S8-Phe-Trp-Gln-NH2
B10: I-351 (peptide)
peptide: XDAXADAAFVXFWQ
modifications: not fully specified; N-terminal Ac; C-terminal NH2; PL3 at 1, B5 at 4, S8 at 11 (stapled 1-4 and 4-11)
notes: Stapled peptide composition; Later-eluting isomer composition; also called Ac-PL3-Asp-Ala-B5-Ala-Asp-Ala-Ala-Phe-Val-S8-Phe-Trp-Gln-NH2
B11: I-350 (peptide)
peptide: XDAXADAAFVXFWQ
modifications: not fully specified; N-terminal Ac; C-terminal NH2; PL3 at 1, B5 at 4, S8 at 11 (stapled 1-4 and 4-11)
notes: Stapled peptide composition; Earlier-eluting isomer composition; also called Ac-PL3-Asp-Ala-B5-Ala-Asp-Ala-Ala-Phe-Val-S8-Phe-Trp-Gln-NH2
B12: I-349 (peptide)
peptide: XAAXDDAAFVXFWQ
modifications: not fully specified; N-terminal Ac; C-terminal NH2; PL3 at 1, B5 at 4, S8 at 11 (stapled 1-4 and 4-11)
notes: Stapled peptide composition; Later-eluting isomer composition; also called Ac-PL3-Ala-Ala-B5-Asp-Asp-Ala-Ala-Phe-Val-S8-Phe-Trp-Gln-NH2
B13: I-348 (peptide)
peptide: XAAXDDAAFVXFWQ
modifications: not fully specified; N-terminal Ac; C-terminal NH2; PL3 at 1, B5 at 4, S8 at 11 (stapled 1-4 and 4-11)
notes: Stapled peptide composition; Earlier-eluting isomer composition; also called Ac-PL3-Ala-Ala-B5-Asp-Asp-Ala-Ala-Phe-Val-S8-Phe-Trp-Gln-NH2

What follows are binders tested against T1, beta-catenin in TCF/LEF luciferase reporter cells (Homo sapiens (Human), UniProt P35222 1-781) (assay: cell-based or functional assay).
T1 sequence: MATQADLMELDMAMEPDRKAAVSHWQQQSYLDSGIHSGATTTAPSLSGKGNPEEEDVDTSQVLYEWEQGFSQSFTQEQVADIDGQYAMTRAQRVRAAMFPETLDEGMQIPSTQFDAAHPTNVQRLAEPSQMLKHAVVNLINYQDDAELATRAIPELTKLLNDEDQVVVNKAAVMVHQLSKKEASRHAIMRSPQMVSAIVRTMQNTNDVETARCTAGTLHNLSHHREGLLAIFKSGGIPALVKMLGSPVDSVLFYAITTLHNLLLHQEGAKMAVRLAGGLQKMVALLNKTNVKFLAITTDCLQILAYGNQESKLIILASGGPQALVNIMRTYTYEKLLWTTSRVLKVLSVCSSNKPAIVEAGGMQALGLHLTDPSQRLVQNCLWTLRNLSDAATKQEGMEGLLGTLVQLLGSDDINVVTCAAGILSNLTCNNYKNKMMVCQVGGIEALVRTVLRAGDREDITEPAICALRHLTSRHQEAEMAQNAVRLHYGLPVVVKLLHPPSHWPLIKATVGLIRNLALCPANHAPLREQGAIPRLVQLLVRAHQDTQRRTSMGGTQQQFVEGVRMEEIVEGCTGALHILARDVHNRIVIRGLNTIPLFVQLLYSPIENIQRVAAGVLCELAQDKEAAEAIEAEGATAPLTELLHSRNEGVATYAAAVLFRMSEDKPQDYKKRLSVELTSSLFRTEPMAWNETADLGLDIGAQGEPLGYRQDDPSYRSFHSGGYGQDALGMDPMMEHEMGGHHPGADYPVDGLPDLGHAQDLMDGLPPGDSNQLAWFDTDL

Row | Binder | TCF Reporter Assay Abs IC50 (uM), peptide + ST-Protein | TCF Reporter Assay Abs IC50 (uM), peptide only
1 | B1 | 0.3 µM | 7 µM
2 | B2 | 0.2 µM | 5 µM

The binders below were run against T2, B-cat-Halo (NanoBRET construct expressed in HEK293 cells) (UniProt P35222 1-781) (assay: cell-based or functional assay).
T2 sequence (looked up): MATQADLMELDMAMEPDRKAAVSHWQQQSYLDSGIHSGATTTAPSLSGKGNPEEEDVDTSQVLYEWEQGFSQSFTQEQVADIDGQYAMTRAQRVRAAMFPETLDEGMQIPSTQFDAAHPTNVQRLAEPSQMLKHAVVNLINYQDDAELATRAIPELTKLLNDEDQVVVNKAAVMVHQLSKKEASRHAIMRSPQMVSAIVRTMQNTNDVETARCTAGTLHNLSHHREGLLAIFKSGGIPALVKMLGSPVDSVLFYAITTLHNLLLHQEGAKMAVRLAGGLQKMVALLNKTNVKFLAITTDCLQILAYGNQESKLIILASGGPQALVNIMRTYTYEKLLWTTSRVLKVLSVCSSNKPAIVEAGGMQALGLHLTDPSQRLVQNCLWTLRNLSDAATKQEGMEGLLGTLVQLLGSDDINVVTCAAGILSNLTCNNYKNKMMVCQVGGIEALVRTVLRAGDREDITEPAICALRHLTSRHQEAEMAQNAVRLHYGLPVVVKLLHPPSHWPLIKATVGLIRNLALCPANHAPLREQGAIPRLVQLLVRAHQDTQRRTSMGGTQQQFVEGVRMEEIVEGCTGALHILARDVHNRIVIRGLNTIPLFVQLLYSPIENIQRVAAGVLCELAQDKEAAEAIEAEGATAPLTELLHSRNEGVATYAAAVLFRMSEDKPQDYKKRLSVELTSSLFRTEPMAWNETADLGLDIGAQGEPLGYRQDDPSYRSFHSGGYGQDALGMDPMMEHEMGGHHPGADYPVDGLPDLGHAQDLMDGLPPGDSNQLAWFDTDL

Row | Binder | NanoBRET Abs IC50
3 | B3 | 8.9 µM
4 | B4 | 28.8 µM
5 | B5 | 15.4 µM
6 | B6 | 9.7 µM
7 | B7 | 12.3 µM
8 | B8 | 30.5 µM

Each binder was assayed against T3, full-length beta-Catenin (Uniprot ID P35222) (Homo sapiens (Human), UniProt P35222 2-781) (assay: AlphaScreen competition; peptide titrated against full-length beta-catenin + biotin-TCF4(10-53)).
T3 construct: The assay protocols say only 'full-length'; No tag is stated, although the AlphaScreen kit is a Histidine (Nickel Chelate) kit; also called B-Catenin; bCat
T3 sequence: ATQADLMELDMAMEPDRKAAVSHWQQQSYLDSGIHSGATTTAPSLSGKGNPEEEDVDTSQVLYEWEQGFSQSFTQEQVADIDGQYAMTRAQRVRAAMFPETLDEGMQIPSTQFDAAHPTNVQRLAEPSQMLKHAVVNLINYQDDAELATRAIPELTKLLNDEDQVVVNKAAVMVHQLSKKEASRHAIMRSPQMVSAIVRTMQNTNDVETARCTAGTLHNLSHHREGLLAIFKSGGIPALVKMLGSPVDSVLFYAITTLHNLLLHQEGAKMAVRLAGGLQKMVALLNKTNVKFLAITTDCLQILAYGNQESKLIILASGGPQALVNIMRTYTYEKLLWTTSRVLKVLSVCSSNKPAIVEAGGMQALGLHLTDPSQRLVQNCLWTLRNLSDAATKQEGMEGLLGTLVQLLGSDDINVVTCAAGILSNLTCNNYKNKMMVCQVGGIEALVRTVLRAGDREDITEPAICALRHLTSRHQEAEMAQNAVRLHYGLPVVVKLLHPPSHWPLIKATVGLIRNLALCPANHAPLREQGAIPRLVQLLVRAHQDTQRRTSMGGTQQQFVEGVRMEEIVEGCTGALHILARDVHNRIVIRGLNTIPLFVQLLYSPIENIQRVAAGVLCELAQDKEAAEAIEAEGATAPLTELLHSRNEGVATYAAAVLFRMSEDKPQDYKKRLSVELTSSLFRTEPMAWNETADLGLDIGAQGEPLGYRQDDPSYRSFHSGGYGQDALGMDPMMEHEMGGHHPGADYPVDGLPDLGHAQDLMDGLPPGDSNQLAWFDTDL
Method: Equal volume of the titrated peptide was added to the plate and incubated for 15 minutes at 20° C. Then 4 uL of donor and 4 uL acceptor beads at 10 ug/mL were added to the plate, for a 16 uL reaction pool and protected from light for 60 minutes at 20° C. prior to read. Reads were performed on a CLARIOstar plate reader (BMG Labtech) in duplicate, and data were fitted to a 1:1 binding model with hill slope using an in-house script. All provided concentrations are final concentrations.

Row | Binder | EC50
9 | B9 | 0.377 µM
10 | B10 | 10 µM
11 | B11 | 10 µM
12 | B12 | 7.19 µM
13 | B13 | 10 µM

What follows are binders tested against T4, full-length beta-Catenin (Uniprot ID P35222) (Homo sapiens (Human), UniProt P35222 1-781) (assay: FP competition: full-length beta-catenin 10 nM + 5FAM-TCF4(10-53) 10 nM).
T4 construct: also called bCat; B-Catenin
T4 sequence: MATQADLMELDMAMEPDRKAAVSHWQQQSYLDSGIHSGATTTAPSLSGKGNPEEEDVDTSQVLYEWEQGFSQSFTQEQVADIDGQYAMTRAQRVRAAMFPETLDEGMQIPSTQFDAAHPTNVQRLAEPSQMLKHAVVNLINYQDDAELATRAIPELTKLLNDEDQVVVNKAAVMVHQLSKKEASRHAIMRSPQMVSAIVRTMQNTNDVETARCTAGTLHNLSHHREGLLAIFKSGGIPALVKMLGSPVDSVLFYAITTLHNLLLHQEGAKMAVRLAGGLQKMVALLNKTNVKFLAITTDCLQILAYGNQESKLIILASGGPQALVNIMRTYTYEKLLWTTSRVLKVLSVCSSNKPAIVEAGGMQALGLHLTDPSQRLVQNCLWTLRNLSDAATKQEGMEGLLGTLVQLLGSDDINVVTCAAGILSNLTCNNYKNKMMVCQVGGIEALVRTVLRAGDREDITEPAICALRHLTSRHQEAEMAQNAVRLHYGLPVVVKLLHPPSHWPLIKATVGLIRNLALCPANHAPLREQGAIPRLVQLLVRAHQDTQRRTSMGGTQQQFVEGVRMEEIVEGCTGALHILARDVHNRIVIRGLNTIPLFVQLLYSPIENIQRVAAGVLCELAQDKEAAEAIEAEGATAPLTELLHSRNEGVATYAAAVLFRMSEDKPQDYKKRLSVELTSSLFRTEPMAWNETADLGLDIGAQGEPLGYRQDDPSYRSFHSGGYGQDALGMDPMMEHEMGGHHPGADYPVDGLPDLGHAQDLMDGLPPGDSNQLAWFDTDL
Method: The plate was incubated protected from light for 60 minutes at 20° C. prior to read. Reads were performed on a CLARIOstar plate reader (BMG Labtech) in duplicate, and data were fitted to a 1:1 binding model with hill slope using an in-house script. All provided concentrations are final concentrations.

Row | Binder | IC50
14 | B3 | 0.025 µM
15 | B7 | 0.02 µM
